Legend:
[1] = target: SHEP1 cell (surface binding partners of WGA not named); assay: z-modulation FFT microscopy on a fixed SHEP1 cell, 10, 20 and 50 µg/ml WGA, first order kinetic model fit
[2] = target: glycoprotein on Barrett's esophagus derived CP-D (CP-18821) cells; assay: cell edge tracking (mechanical deformation) by phase contrast microscopy on fixed CP-D cells, 20 ug/ml WGA, first order kinetics fit
[3] = target: glycoprotein on Barrett's esophagus derived CP-D (CP-18821) cells; assay: cell edge tracking (mechanical deformation) by phase contrast microscopy on fixed CP-D cells, 5 ug/ml WGA, first order kinetics fit

Wheat germ agglutinin (WGA) (from UniProt P10968 27-197)
Kd [1]: 125 nM
koff [1]: 0.013 s⁻¹
kon [1]: 14000 M⁻¹ s⁻¹
Kd [2]: 21 nM
koff [2]: 0.0029 s⁻¹
kon [2]: 140000 M⁻¹ s⁻¹
Kd [3]: 14 nM
koff [3]: 0.00156 s⁻¹
kon [3]: 109000 M⁻¹ s⁻¹

Reference: patent publication US20160169873A1
